Each sequence was assayed on MS2 coat protein (assay: apparent KD of MS2 coat protein, switch ON state; designed switch direction (-1 OFF switch, 1 ON switch): -1; higher = weaker reporter binding). Details: FMN input: 0 or 200 uM; Eterna round: R93 (includes R88 designs).
How it was run: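 Designed RNA switches were transcribed on-chip from Illumina sequencing clusters. SNAP-549-labelled MS2 coat protein was titrated onto them in twofold steps from 0.7 or 1.5 nM to 3 µM in 100 mM Tris-HCl pH 7.5, 80 mM KCl, 4 mM MgCl2, either without or with constant ligand. Apparent KD reflects the per-design median of normalised cluster binding-curve fits.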

| Sequence | apparent KD of MS2 coat protein [nM] |
| --- | --- |
| AGCAAGUAAGGAUAUGCAAAGUCAGGACACACACUGACGAAGCAGAAGGUACAUGAGGAUCACCCAUGUAAGCA [Mat - Exaclusion 4 - Eli mod - D61] | 25.6 |
| AAAAAGACAGGAUAUACAUGAAAAAAAAAAAAAAAAAAAAAACAUGAGGAUCACCCAUGUAGAAGGGUCAAAAA [Starry's Exclusion 2] | 71.6 |
| AAAGGGUCAGGAUAUCGAUUAAUAAUAAAAUAAAUAAAGAUCGAGAAGGGACAUGAGGAUCACCCAUGUAUAAA [May 77] | 45.9 |
| AAAAAGUGAGGAUAUACAUGAGGAUCACCCAUGUAAAAGGUCGCGGGAGGGAGGGACGGUAGAAGGCGCAAAAA [Excls3-VII] | 15.7 |
| AAGAAGUGAGGAUAUCGAAGACUGUCGAAAAGACAGUCGAACGAGAAGGCACAUGAGGAUCACCCAUGUAAGAA [Marsupial] | 34.4 |
| GGUUGAAUAGGAUAUACAUGAGGAUCACCCAUGUGAGAGAAAAAAGUGAGAAAGAAAAGUAGAAGGAUUUGACG [salish99-ex3-61] | 34.7 |
| AAAAAACAUGAGGAUCACCCAUGUGAGGAUAUGAUGCGAAUAAAGAAAGAAUAAAGCAUCAGAAGGCACACCAA [Mat - Exclusion 1 - Eli mod - D61] | 27.9 |
| CGCUAGUCAGGAUAUACAAACAUGUCAAAAGACGUGAAAAAACAUGAGGAUCACCCAUGUAGAAGGGACUAGCG [Mat - Exclusion 2 - JL mod - D18] | 15.7 |
| UAUAUACAUGAGGAUCACCCAUGUCAGGAUAUGCGCCUAGAAUAUACAUAAGAUACAAGCAGAAGGGACACUAA [JR_Exc001_Sub206] | 57.3 |
| GAAAACUGAGGAUAUACUUUGGGAAAAGAAAAGAUGAUGUUACAUGAGGAUCACCCAUGUAGAAGGCAGAAAAG [Mat - Exclusion 2 - Mod - D151] | 25.3 |
| AAAAAGGCAGGAUAUGCAUACUCACGGAAAAACUGGAUGGUACAUGAGGAUCACCCAUGUAGAAGGGCUAAAAA [Dora Explored 16 - Jieux - Exclusion 2] | 55 |
| GGAAAGCGAGGAUAUACAUGAGGAUCACCCAUGUAAACAAACAAACAAACAAACAAAUGUAGAAGGCGCAAAAC [Exclusion 3 Strange] | 49 |
| AAAAAUUGAGGAUAUACGAACAUGUCAAAAGACGUGAAGGGACAUGAGGAUCACCCAUGUAGAAGGCGAAAAAA [JL Loop Breaker 2] | 41.3 |
| AAAAAACAUGAGGAUCACCCAUGUGAGGAUAUGCGAAAAUAAAAUAAAUAAAUAAAAAGCAGAAGGCACACCAA [Mat - Exclusion 1 - Eli mod - D60] | 25.3 |
| CUUAUGUGAGGAUAUCAGUAGUAAAAAAAAAAAAUUACUACUGAGAAGGCACAUGAGGAUCACCCAUGUGCCUU [EX4 323: Super Stable 23] | 14.4 |
| CUCAUGUAAGGAUAUCAGUAGUAAAAAAAUAAAAUUACUACUGAGAAGGUACAUGAGGAUCACCCAUGUCCGGG [EX4 374: Super Stable 74] | 21.7 |
| AAGAAGUCAGGAUAUGGAAAAGAAAAGAAAAGAAAAGAAAACCAGAAGGGACAUGAGGAUCACCCAUGUAAGAA [Xerxes I the Great] | 44.5 |
| AAAAAACAUGAGGAUCACCCAUGUCAGGAUAUGCAGAAAAAGAAAAAAAGAAAAGAAAGUAGAAGGGACAAAAA [May 7] | 31.2 |
| UUUUGACAUGAGGAUCACCCAUGUCAGGAUAUAGUAGGAAAAAAAAAAAAAAAAACUACUAGAAGGGAUAUGGA [Design 15: Not So Super Stable 1] | 21.7 |
| AAAAAGGCAGGAUAUACAUGAGGAUCACCCAUGUAAAAAAAAAAAAAGGGAAAAAAAAGUAGAAGGGCCAAAAA [Khamudi] | 35.8 |
| GAAAAACAUGAGGAUCACCCAUGUGAGGAUAUGAACGAAAUAAAAUAAAAAUAAAAGUUCAGAAGGCACAAAAG [Mat - Exclusion 1 - Eli mod - D12] | 34 |
| AAAAAACGAGGAUAUACAAAAACAAAAGGAACAAAAUACAAACAUGAGGAUCACCCAUGUAGAAGGCGUAAAAA [Default title] | 29.5 |
| AGGAAACAUGAGGAUCACCCAUGUUAGGAUAUGAACGAAAAUAAAUAAAAAUAAAAGUUCAGAAGGAACAAAAA [66%, Wbt, 18] | 27 |

| Sequence | apparent KD of MS2 coat protein [nM] |
| --- | --- |
| AGUCAUACAGGAUAUACAUGAGGAUCACCCAUGUAUAUCCAAAAAAAAAAAAAAACAUGUAGAAGGGUAUGACA [EX3 207: Super Stable 7] | 10.8 |
| AACAGUACAGGAUAUACAUGAGGAUCACCCAUGUGAAAAUAAAGUGGCGUACCACAAAGUAGAAGGGUACUGGA [Moding Maslow revisited (73) 4] | 28.8 |
| AAAAAGUCAGGAUAUACAGAAAAAAAAACGAAAAAAAAUCUGUAGAAGGGACAUGAGGAUCACCCAUGUUAAAA [Ex 4 May 13] | 41.5 |
| AAGAAGGUAGGAUAUACUAAAGAAAUGAAAAGAAAUAAAGAACAUGAGGAUCACCCAUGUAGAAGGACCAAGAA [Webenre] | 25.8 |
| AAAAAACAUGAGGAUCACCCAUGUAAGGAUAUGCUAAAAAACACGGAAAACGUGAAUAGCAGAAGGUACAAAAA [66%, Wbt, 30] | 21.5 |
| AAGAACGGAGGAUAUACAAAAUAAAAGAAAAGAAAGAAAGAACAUGAGGAUCACCCAUGUAGAAGGUCGAAGAA [Seth Meribre] | 14.9 |
| AAGAAACAUGAGGAUCACCCAUGUGAGGAUAUCAAAAAGAAAAGAAAAGAAAGAAGAAUGAGAAGGCACAAAGG [Mery—] | 30.5 |
| AAAAAACAUGAGGAUCACCCAUGUGAGGAUAUCUGUAUUCAAUCCUCGGAUUGAAUACAGAGAAGGCACAUGGA [Ex1: 610] | 46.4 |
| AUCUUGUCAGGAUAUCGUACAAUAUGGAAAACAUAGAGGUACGAGAAGGGACAUGAGGAUCACCCAUGUAAAAC [May 98] | 59.5 |
| CACGGACAUGAGGAUCACCCAUGUGAGGAUAUGCUCUACGAACGUUUUCCCACGAGAAGCAGAAGGCACAUUUC [try 2] | 42.6 |
| AAGAACUGAGGAUAUGCAAAAGGGAAAGCUGAUCCUCAUCUACAUGAGGAUCACCCAUGUAGAAGGCGGGAAAU [Aveerve] | 63.4 |
| AAAAGUGGAGGAUAUACAUGAGGAUCACCCAUGUGUAAAAAUAAAAACACAAAAGAAAGUAGAAGGCCACAAAG [Mat - Exclusion 3 - Mayanna mod - D115] | 19.4 |
| AAAAAGUGAGGAUAUUCGGAAGGGAAAGCGCAAACCCAACCGAAGAAGGCACAUGAGGAUCACCCAUGUGGAAA [Ecls4-III 65% - Early + late G segment 2] | 32.1 |
| GAAAAGUGAGGAUAUUCGGAUAGGAAAACGAAAACCUAUCCGAAGAAGGCACAUGAGGAUCACCCAUGUGGGAA [Mat - Exaclusion 4 - Eli mod - D49] | 80.3 |
| AGUCAUACAGGAUAUACAUGAGGAUCACCCAUGUAAAUCCUAAAAAGGUGAUCCUCAUGUAGAAGGGUAUGACA [EX3 219: Super Stable 19] | 21.8 |
| AAAAAACAUGAGGAUCACCCAUGUGAGGAUAUCGGAGGAGGAGGAGGAGGAGGAGGAGCGAGAAGGUACAAAAA [salish99-Ex1-04] | 14.4 |
| CUCAUGUGAGGAUAUGUACAGAAAAAAAUGGGUGAAACUGUACAGAAGGCACAUGAGGAUCACCCAUGUGAAAA [EX4 378: S S Pseudoknot 3] | 26.1 |
| CAGUACUGAGGAUAUACAUGAGGAUCACCCAUGUGUUCCAGCUAGGAAACUAGCAAAUGUAGAAGGCAGUACUG [Ex3: 827] | 183 |
| AAGAAACAUGAGGAUCACCCAUGUAAGGAUAUGUAAAAGAAAAGAAAAGAAAGAAGAAACAGAAGGUACAAAGG [Wahankh Intef II] | 46 |
| AAAAAGGCAGGAUAUGCAUACUCACGGAAAAAAAGGUUGGGACAUGAGGAUCACCCAUGUAGAAGGGCUAAAAA [Dora Explored 15 - Jieux - Exclusion 2] | 85.2 |
| AAAAAGUCAGGAUAUCGGAAAAAAAAAAAAAAAAGGAGAAACGAGAAGGGACAUGAGGAUCACCCAUGUAAAAA [No Frills] | 117 |
| UAAAGACAUGAGGAUCACCCAUGUGAGGAUAUCGGAGAUAACAGAACAUCAAGUUCAGCGAGAAGGCACAGAAA [JR_Exc001_Sub402] | 47.2 |

Source: the supplement of paper PMC9170038
